The values below are quoted from earlier work in PMC4083100.

This series has as its target FcεRI (Homo sapiens) (UniProt P12319).
UniProt P12319, sequence (P12319 26-257): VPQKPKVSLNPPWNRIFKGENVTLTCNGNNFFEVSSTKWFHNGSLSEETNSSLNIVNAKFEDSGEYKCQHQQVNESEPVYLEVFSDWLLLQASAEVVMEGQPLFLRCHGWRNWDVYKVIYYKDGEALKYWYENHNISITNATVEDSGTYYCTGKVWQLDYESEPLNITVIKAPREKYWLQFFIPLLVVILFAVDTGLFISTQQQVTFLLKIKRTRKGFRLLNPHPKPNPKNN

As to IgE (from UniProt P01854), the Kd is under 1 nM.

One may read the Kd as the constant that tells how readily two partners part at equilibrium.
